The text below walks through data of paper PMC9367475.

The target of assay [1] is human DC-SIGN expressed on HEK 293T cells (DC-HEK) (human) (UniProt Q9NNX6).
For assay [2], the target named is DC-SIGN on THP-1 cells induced with PMA and IL-4 (DC-THP-1) (human (endogenous in THP-1)) (UniProt Q9NNX6).

Turning to “recombinant SARS-CoV-2 spike protein (from UniProt P0DTC2 14-1273) (natural protein)”, in assay [1], the IFN-α mRNA (RT-qPCR, 6 h) in DC-HEK cells challenged with Spike protein pre-incubated with rfhSP-D 20 µg/ml, against Spike protein without rfhSP-D was -2.1; the NF-κB mRNA (RT-qPCR, 6 h) in DC-HEK cells challenged with Spike protein pre-incubated with rfhSP-D 20 µg/ml, against Spike protein without rfhSP-D is -1.2; the RANTES mRNA (RT-qPCR, 6 h) in DC-HEK cells challenged with Spike protein pre-incubated with rfhSP-D 20 µg/ml, against Spike protein without rfhSP-D is -1.3; the TNF-α mRNA (RT-qPCR, 6 h) in DC-HEK cells challenged with Spike protein pre-incubated with rfhSP-D 20 µg/ml, against Spike protein without rfhSP-D was -3.3. In assay [2], this substance yielded an IL-1β mRNA (RT-qPCR, 6 h and 12 h: ~ -2.5 to ~ -4 log10) in DC-THP-1 cells challenged with Spike protein pre-incubated with rfhSP-D 20 µg/ml, against Spike protein without rfhSP-D of -4; an IL-6 mRNA (RT-qPCR, 12 h) in DC-THP-1 cells challenged with Spike protein pre-incubated with rfhSP-D 20 µg/ml, against Spike protein without rfhSP-D of -5; an IL-8 mRNA (RT-qPCR, 6 h and 12 h: ~ -2.3 to ~ -4.8 log10) in DC-THP-1 cells challenged with Spike protein pre-incubated with rfhSP-D 20 µg/ml, against Spike protein without rfhSP-D of -4.8; an MHC class II mRNA (RT-qPCR, 6 h and 12 h: - 2 to - 2.7 log10) in DC-THP-1 cells challenged with Spike protein pre-incubated with rfhSP-D 20 µg/ml, against Spike protein without rfhSP-D of -2.7. In assay [2], this substance gave an NF-κB mRNA (RT-qPCR, 6 h and 12 h: ~ -1 to ~ -4 log10) in DC-THP-1 cells challenged with Spike protein pre-incubated with rfhSP-D 20 µg/ml, against Spike protein without rfhSP-D of -4; a TNF-α mRNA (RT-qPCR, 6 h and 12 h: ~ -3.1 to ~ -6.8 log10) in DC-THP-1 cells challenged with Spike protein pre-incubated with rfhSP-D 20 µg/ml, against Spike protein without rfhSP-D of -6.8.
